Measurements reported in publication PMC2034464 (Nucleic Acids Research, 2007).

B1: GST-WRN fragment 500–946 (domain or fragment)
chain: not shown
B2: Recombinant human WRN (Werner syndrome helicase) (natural protein)
chain: not shown
B3: GST-WRN fragment 949–1432 (domain or fragment, human, UniProt Q14191 949-1432, looked up)
chain: MDDSEDTSWDFGPQAFKLLSAVDILGEKFGIGLPILFLRGSNSQRLADQYRRHSLFGTGKDQTESWWKAFSRQLITEGFLVEVSRYNKFMKICALTKKGRNWLHKANTESQSLILQANEELCPKKLLLPSSKTVSSGTKEHCYNQVPVELSTEKKSNLEKLYSYKPCDKISSGSNISKKSIMVQSPEKAYSSSQPVISAQEQETQIVLYGKLVEARQKHANKMDVPPAILATNKILVDMAKMRPTTVENVKRIDGVSEGKAAMLAPLLEVIKHFCQTNSVQTDLFSSTKPQEEQKTSLVAKNKICTLSQSMAITYSLFQEKKMPLKSIAESRILPLMTIGMHLSQAVKAGCPLDLERAGLTPEVQKIIADVIRNPPVNSDMSKISLIRMLVPENIDTYLIHMAIEILKHGPDSGLQPSCDVNKRRCFPGSEEICSSSKRSKEEVGINTETSSAERKRRLPVWFAKGSDTSKKLMDKTKRGGLFS
B4: GST-WRN fragment 500–1149 (domain or fragment)
chain: not shown
B5: GST-WRN fragment 51–449 (domain or fragment, human, UniProt Q14191 51-449, looked up)
chain: GSIVYSYDASDCSFLSEDISMSLSDGDVVGFDMEWPPLYNRGKLGKVALIQLCVSESKCYLFHVSSMSVFPQGLKMLLENKAVKKAGVGIEGDQWKLLRDFDIKLKNFVELTDVANKKLKCTETWSLNSLVKHLLGKQLLKDKSIRCSNWSKFPLTEDQKLYAATDAYAGFIIYRNLEILDDTVQRFAINKEEEILLSDMNKQLTSISEEVMDLAKHLPHAFSKLENPRRVSILLKDISENLYSLRRMIIGSTNIETELRPSNNLNLLSFEDSTTGGVQQKQIREHEVLIHVEDETWDPTLDHLAKHDGEDVLGNKVERKEDGFEDGVEDNKLKENMERACLMSLDITEHELQILEQQSQEEYLSDIAYKSTEHLSPNDNENDTSYVIESDEDLEMEML

Tests used:
[1] = molecular target: T1, MutSα (MSH2/MSH6 heterodimer) (human, UniProt P43246 1-934; P52701 1-1360); experiment: pull-down
[2] = molecular target: T2, MutSβ (MSH2/MSH3 heterodimer) (human, UniProt P43246 1-934; P20585 1-1137); experiment: pull-down
T2 sequence (P43246 whole entry, chain 1 of 2): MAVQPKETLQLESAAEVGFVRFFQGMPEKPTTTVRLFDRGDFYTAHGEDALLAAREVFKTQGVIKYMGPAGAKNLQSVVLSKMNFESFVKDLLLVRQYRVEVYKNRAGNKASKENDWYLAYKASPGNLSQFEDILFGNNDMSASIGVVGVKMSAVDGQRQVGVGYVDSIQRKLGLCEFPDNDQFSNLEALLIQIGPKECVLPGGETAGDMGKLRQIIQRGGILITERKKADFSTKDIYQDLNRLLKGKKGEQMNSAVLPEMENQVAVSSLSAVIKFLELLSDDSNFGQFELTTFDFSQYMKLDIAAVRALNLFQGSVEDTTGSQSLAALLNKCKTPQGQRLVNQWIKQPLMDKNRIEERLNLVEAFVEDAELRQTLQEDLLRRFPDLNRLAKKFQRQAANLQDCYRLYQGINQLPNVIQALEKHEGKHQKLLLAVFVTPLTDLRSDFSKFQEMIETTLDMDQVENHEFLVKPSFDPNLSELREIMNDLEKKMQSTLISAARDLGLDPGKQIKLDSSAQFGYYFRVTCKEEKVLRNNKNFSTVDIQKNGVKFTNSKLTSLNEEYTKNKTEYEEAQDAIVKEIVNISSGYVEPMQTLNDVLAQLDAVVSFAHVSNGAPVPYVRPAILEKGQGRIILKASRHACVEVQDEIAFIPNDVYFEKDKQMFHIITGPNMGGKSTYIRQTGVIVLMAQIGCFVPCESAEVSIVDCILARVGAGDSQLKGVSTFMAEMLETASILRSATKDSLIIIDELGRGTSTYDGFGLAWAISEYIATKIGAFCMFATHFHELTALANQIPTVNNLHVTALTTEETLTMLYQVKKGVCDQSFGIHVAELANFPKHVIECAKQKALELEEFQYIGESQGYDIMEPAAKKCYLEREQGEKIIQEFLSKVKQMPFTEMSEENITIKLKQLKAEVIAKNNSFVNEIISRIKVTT
T2 sequence (P20585 whole entry, chain 2 of 2): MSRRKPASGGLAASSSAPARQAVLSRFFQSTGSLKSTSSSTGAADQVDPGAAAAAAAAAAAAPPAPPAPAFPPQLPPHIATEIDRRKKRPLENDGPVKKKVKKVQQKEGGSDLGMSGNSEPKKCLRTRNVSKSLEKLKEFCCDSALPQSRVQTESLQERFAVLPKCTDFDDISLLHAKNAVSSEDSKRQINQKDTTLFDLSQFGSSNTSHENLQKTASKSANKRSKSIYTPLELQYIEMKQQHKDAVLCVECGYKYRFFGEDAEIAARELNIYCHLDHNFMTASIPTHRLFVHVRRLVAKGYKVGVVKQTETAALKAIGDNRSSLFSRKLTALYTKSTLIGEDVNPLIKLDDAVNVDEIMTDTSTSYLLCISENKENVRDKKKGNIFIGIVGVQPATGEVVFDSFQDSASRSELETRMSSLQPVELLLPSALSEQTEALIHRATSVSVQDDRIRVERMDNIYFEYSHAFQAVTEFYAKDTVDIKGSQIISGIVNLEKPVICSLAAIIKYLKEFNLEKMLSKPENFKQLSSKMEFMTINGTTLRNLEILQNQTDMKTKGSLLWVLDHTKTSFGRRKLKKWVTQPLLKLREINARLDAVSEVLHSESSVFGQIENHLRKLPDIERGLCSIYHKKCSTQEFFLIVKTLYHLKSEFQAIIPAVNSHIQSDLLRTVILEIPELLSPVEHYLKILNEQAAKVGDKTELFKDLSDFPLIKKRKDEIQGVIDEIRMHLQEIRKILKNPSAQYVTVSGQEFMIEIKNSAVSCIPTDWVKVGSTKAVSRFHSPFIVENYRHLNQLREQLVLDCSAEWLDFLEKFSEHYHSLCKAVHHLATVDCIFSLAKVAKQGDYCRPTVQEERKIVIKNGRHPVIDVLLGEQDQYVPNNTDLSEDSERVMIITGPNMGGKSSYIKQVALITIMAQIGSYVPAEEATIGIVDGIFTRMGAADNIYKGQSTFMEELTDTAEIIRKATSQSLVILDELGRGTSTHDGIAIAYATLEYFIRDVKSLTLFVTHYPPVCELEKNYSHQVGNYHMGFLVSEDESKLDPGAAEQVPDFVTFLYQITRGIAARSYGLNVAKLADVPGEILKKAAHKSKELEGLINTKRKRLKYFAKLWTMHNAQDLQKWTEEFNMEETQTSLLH

[3] = molecular target: T3, MutLα (MLH1/PMS2 heterodimer) (human, UniProt P40692 1-756; P54278 1-862); experiment: pull-down
T3 sequence (P40692 whole entry, chain 1 of 2): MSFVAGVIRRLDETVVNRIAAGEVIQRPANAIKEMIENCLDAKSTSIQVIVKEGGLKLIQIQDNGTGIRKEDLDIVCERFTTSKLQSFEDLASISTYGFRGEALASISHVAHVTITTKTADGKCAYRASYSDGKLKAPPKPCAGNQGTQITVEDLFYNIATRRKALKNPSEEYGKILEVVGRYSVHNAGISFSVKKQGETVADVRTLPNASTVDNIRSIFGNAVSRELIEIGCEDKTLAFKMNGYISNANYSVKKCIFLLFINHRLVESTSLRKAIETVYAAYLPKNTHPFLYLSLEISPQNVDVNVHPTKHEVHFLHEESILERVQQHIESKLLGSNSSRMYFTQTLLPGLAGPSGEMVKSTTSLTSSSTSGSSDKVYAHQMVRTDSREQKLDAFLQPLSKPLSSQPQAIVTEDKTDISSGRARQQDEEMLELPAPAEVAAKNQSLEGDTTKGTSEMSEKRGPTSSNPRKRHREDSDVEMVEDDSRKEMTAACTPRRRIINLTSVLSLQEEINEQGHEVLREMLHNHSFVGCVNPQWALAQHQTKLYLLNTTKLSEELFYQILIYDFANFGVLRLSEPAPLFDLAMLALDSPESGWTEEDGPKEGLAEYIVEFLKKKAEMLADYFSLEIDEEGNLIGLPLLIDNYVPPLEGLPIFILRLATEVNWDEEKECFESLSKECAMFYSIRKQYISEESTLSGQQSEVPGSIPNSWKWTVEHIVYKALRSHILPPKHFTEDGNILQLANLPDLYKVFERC
T3 sequence (P54278 whole entry, chain 2 of 2): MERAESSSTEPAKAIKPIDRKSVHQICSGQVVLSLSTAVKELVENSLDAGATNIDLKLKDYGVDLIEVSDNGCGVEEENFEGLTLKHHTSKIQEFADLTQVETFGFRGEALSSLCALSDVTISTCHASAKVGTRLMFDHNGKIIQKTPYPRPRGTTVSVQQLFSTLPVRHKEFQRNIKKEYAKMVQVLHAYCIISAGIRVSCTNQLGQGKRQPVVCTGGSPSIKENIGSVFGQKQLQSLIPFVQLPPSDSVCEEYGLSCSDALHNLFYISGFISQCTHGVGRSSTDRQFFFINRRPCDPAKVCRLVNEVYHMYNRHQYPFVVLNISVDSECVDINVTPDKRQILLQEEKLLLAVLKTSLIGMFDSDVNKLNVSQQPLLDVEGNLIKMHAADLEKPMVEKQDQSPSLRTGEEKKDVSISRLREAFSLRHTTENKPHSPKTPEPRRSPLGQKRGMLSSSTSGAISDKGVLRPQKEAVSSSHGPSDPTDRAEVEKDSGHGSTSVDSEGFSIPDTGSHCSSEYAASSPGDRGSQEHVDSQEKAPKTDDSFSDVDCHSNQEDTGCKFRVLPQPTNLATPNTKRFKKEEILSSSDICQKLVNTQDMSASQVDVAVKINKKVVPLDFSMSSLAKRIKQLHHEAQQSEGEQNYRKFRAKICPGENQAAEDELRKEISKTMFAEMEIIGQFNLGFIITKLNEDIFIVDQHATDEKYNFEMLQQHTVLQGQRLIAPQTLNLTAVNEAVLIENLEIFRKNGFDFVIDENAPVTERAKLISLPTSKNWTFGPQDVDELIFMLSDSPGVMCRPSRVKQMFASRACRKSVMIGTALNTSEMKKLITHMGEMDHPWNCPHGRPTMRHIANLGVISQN

[4] = molecular target: T1, MutSα (MSH2/MSH6 heterodimer); experiment: ELISA
[5] = molecular target: T2, MutSβ (MSH2/MSH3 heterodimer); experiment: ELISA
[6] = molecular target: T3, MutLα (MLH1/PMS2 heterodimer); experiment: ELISA

Binder | binding result [2] | binding result [3] | further results
B1 | binds | binds | binding result [1]: binds
B2 |  |  | Kd [4]: 38.5 nM; Kd [5]: 8.8 nM; Kd [6]: 34.9 nM
B3 | binds |  | 
B4 | binds |  | 
B5 |  | binds | 
